Bounds are passed on as bounds.

The target of assay [1] is human Mpl (full length, expressed on BaF3 cells) (human) (UniProt P40238). Nature of the assay: cell-based or functional assay.
The target in assay [2] is T1, human Mpl (full length, expressed on BaF3 cells) (human, UniProt P40238 26-635).
T1 sequence: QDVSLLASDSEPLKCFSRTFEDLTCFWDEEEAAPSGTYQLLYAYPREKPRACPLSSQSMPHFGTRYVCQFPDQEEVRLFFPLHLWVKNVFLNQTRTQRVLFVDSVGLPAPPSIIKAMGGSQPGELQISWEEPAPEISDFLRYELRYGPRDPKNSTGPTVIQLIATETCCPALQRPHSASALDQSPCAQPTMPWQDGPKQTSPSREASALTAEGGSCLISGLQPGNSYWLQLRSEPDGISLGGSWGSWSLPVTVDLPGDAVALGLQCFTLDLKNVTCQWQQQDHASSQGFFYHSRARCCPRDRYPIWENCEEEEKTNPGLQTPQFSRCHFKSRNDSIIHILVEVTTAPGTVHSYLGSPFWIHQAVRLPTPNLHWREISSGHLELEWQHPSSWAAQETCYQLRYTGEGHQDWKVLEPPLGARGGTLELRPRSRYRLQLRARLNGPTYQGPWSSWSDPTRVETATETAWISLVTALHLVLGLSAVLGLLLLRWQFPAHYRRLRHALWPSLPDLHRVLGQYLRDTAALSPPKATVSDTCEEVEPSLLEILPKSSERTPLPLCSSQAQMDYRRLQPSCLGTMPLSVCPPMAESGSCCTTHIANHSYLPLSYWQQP
Nature of the assay: cell-based or functional assay.

As for “recombinant human TPO (rhTPO, R&D) (from UniProt P40225 22-353) (ligand)”, in assay [1], the BaF-human Mpl EC50 (cell proliferation, WST-8) is 0.076 nM.

B1: anti-human Mpl antibody VB22B IgG (antibody, V domains shown)
VH: QVQLQQSGPELVKPGASVKISCKASGYAFTNSWMNWVKQRPGKGLEWIGRIYPGDGETIYNGKFRVKATLTADKSSSTAYMDISSLTSEDSAVYFCARGYDDYSFAYWGQGTLVTVSA
VL: DIVMTQAAPSIPVTPGESVSISCRSSKSLLHSNGNTYLYWFLQRPGQSPQLLIYRMSNLASGVPDRFSGSGSGTAFTLRISRVEAEDVGVYYCMQHIEYPFTFGSGTKLEIK
As to B1, the “TPO-like agonist activity, BaF-human Mpl EC50 (cell proliferation, WST-8)” value (from here on “TPO-like agonist activity”) in assay [2] was greater than 30 nM.

B2: VB22B Diabody (scFv)
scFv: QVQLQQSGPELVKPGASVKISCKASGYAFTNSWMNWVKQRPGKGLEWIGRIYPGDGETIYNGKFRVKATLTADKSSSTAYMDISSLTSEDSAVYFCARGYDDYSFAYWGQGTLVTVSAGGGGSDIVMTQAAPSIPVTPGESVSISCRSSKSLLHSNGNTYLYWFLQRPGQSPQLLIYRMSNLASGVPDRFSGSGSGTAFTLRISRVEAEDVGVYYCMQHIEYPFTFGSGTKLEIK
With B2, the “TPO-like agonist activity” value in assay [2] was 0.061 nM.

B3: VB22B sc(Fv)2 (scFv)
scFv: QVQLQQSGPELVKPGASVKISCKASGYAFTNSWMNWVKQRPGKGLEWIGRIYPGDGETIYNGKFRVKATLTADKSSSTAYMDISSLTSEDSAVYFCARGYDDYSFAYWGQGTLVTVSAGGGGSGGGGSGGGGSDIVMTQAAPSIPVTPGESVSISCRSSKSLLHSNGNTYLYWFLQRPGQSPQLLIYRMSNLASGVPDRFSGSGSGTAFTLRISRVEAEDVGVYYCMQHIEYPFTFGSGTKLEIKGGGGSGGGGSGGGGSQVQLQQSGPELVKPGASVKISCKASGYAFTNSWMNWVKQRPGKGLEWIGRIYPGDGETIYNGKFRVKATLTADKSSSTAYMDISSLTSEDSAVYFCARGYDDYSFAYWGQGTLVTVSAGGGGSGGGGSGGGGSDIVMTQAAPSIPVTPGESVSISCRSSKSLLHSNGNTYLYWFLQRPGQSPQLLIYRMSNLASGVPDRFSGSGSGTAFTLRISRVEAEDVGVYYCMQHIEYPFTFGSGTKLEIK
Take B3: in assay [2], the “TPO-like agonist activity” value is 0.027 nM.
